Laboratory results as given in patent US20240417463A1 (ADAGENE PTE, published 2024).
Positions count from the first letter of the chain named.

B1: TY25035 (antibody, V domains shown)
VH: EVQLVESGGGLVQPGGSLRLSCAASGYSISSGYHWDWIRQAPGKGLEWLARIYWDGDKRYSPSLKSRLTISRDNSKNTLYLQLNSLRAEDTAVYYCARFSDGFDPWGQGTLVTVSS
VL: EIVLTQSPATLSLSPGERATLSCRASQSVDFVGISFLHWYQQKPGQAPRLLIYDASNRATGIPARFSGSGSGTDFTLTISSLEPEDFAVYYCVQGLQWPHTFGQGTKVEIKR
B2: TY25031 (antibody, V domains shown)
VH: EVQLVESGGGLVQPGGSLRLSCAASGYSITSGYHWGWIRQAPGKGLEWIGRIYPSSGSTKYAQKFQGRVTISRDNSKNTLYLQLNSLRAEDTAVYYCARGVRGSYGWFDVWGQGTLVTVSS
VL: DIQLTQSPSSLSASVGDRVTITCSASSRVSYVYWYQQKPGKAPKLLIYAASTLQSGVPSRFSGSGSGTDFTLTISSLQPEDFATYYCQHYVSSPRVYTFGQGTKVEIKR
B3: TY25029 (antibody, V domains shown)
VH: EVQLVESGGGLVQPGGSLRLSCAASGYTFSNYWIHWVRQAPGKGLEWIGIIYPSSGSTKYAQKFQGRVTISRDNSKNTLYLQLNSLRAEDTAVYYCARDRAPGSSGYYDGFDYWGQGTLVTVSS
VL: DIQLTQSPSSLSASVGDRVTITCRASQSVDFHGISFLHWYQQKPGKAPKLLIYDASSLESGVPSRFSGSGSGTDFTLTISSLQPEDFATYYCHQRSTTPLTFGQGTKVEIKR
B4: TY25034 (antibody, V domains shown)
VH: EVQLVESGGGLVQPGGSLRLSCAASGYSITSGHYWNWIRQAPGKGLEWIGIISPSGGGTKYAQKFQGRVTISRDNSKNTLYLQLNSLRAEDTAVYYCARGARGYYALDYWGQGTLVTVSS
VL: EIVLTQSPATLSLSPGERATLSCRASQSVRGRLLAWYQQKPGQAPRLLIYAASSLQSGVPARFSGSGSGTDFTLTISSLEPEDFAVYYCAQYLELPYTFGQGTKVEIKR
B5: TY25040 (antibody, V domains shown)
VH: QVQLVQSGAEVKKPGSSVKVSCKASGFTFSDYGIHWVRQAPGQGLEWIGRIYPSGGSTNYAQKFQGRVTITADKSTSTAYMELSSLRSEDTAVYYCARQRGYGRFAYWGQGTLVTVSS
VL: DIQLTQSPSSLSASVGDRVTITCSASSSVGYVYWYQQKPGKAPKLLIYDASSLESGVPSRFSGSGSGTDFTLTISSLQPEDFATYFCQQYTYAPFTFGQGTKVEIKR
B6: TY25039 (antibody, V domains shown)
VH: QVQPAQSGAEVKKPGSSVKVSCKASGYSISSGYYWGWIRQAPGQGLEWIGAISYSGSTYYSPSLKSRVTITADKSTSTAYMELSSLRSEDTAVYYCARHYLFAGSTSYDAFDIWGQGTLVTVSS
VL: DIQLTQSPSSLSASVGDRVTITCRASQSVDFYGFSFLAWYQQKPGKAPKLLIYDASNRATGIPSRFSGSGSGTDFTLTISSLQPEDFATYYCQQSYRTPLTFGQGTKVEIKR
B7: TY25041 (antibody, V domains shown)
VH: QVQLVQSGAEVKKPGSSVKVSCKASGYSISSGHHWNWIRQAPGQGLEWIGAISYSGSTYYSPSLKSRVTITADKSTSTAYMELSSLRSEDTAVYYCARQGYYGGEGYAVDYWGQGTLVTVSS
VL: B6 VL with F34I, A38H, Q93V, S95A, Y96T, R97Q, L100F
B8: TY25037 (antibody, V domains shown)
VH: QVQLVQSGAEVKKPGSSVKVSCKASGYSITSGHYWTWIRQAPGQGLEWIGGIIPVFGTPNYAQKFQGRVTITADKSTSTAYMELSSLRSEDTAVYYCASYGYGGAYFDVWGQGTLVTVSS
VL: B6 VL with Y32H, F34I, A38H, Q93V, S95G, Y96I, R97Q, T98W, L100W
B9: TY25033 (antibody, V domains shown)
VH: QVQLVQSGAEVKKPGSSVKVSCKASGFTFTSYAIHWVRQAPGQGLEWIGIINPNFGSTNYAQKFQGRVTITADKSTSTAYMELSSLRSEDTAVYYCARYYYGASFDVWGQGTLVTVSS
VL: DIQLTQSPSSLSASVGDRVTITCKSGQSLLHGDVKTYLYWYQQKPGKAPKLLIYDASNRATGIPSRFSGSGSGTDFTLTISSLQPEDFATYYCQQYASWPPGFTFGQGTKVEIKR
B10: TY25030 (antibody, V domains shown)
VH: EVQLVESGGGLVQPGGSLRLSCAASGYSITSGYYWSWIRQAPGKGLEWIGEIYHSGNTYYNPSLKSRVTISRDNSKNTLYLQLNSLRAEDTAVYYCARRVPLGAFDYWGQGTLVTVSS
VL: DIQLTQSPSSLSASVGDRVTITCRASQTVISRYLAWYQQKPGKAPKLLIYDASNLETGVPSRFSGSGSGTDFTLTISSLQPEDFATYYCQQYYAWPLTFGQGTKVEIKR
B11: TY25038 (antibody, V domains shown)
VH: QVQLVQSGAEVKKPGSSVKVSCKASGFTFSRYAIHWVRQAPGQGLEWLGGIIPVFGTANYAQKFQGRVTITADKSTSTAYMELSSLRSEDTAVYYCARQGILGGFAYWGQGTLVTVSS
VL: DIQLTQSPSSLSASVGDRVTITCRASESVDFHGKSFLAWYQQKPGKAPKLLIYAASSLQSGVPSRFSGSGSGTDFTLTISSLQPEDFATYYCQQYLELPFTFGQGTKVEIKR
B12: TY25036 (antibody, V domains shown)
VH: QVQLVQSGAEVKKPGSSVKVSCKASGYTFTGYAIHWVRQAPGQGLEWIGWISPSSGSTKYAQKFQGRVTITADKSTSTAYMELSSLRSEDTAVYYCARYGYGPVFDYWGQGTLVTVSS
VL: DIQLTQSPSSLSASVGDRVTITCSASSSVTYIYWYQQKPGKAPKLLIYDASNRATGIPSRFSGSGSGTDFTLTISSLQPEDFATYYCQQYTSSPRGFTFGQGTKVEIKR

molecular target: T1, hCD47-ECD/Fc protein (Sinobiological) (human, UniProt Q08722 19-139, biotinylated in the Octet assay, sites not stated); test: ELISA, coated hCD47-ECD/Fc
T1 construct: extracellular domain; Bought protein; also called human CD47-Fc antigen; recombinant hCD47-ECD/Fc; not shown: Fc part of the bought fusion protein
T1 sequence (Q08722 19-139 limits assumed): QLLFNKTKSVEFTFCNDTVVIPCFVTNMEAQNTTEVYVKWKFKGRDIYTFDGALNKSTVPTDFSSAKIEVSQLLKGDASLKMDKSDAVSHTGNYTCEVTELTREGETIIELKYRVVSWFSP

Binder | EC50
B1 | 2.55 nM
B2 | 0.59 nM
B3 | 0.58 nM
B4 | 0.47 nM
B5 | 0.46 nM
B6 | 3.66 nM
B7 | 1.17 nM
B8 | 0.95 nM
B9 | 6.11 nM
B10 | 2.42 nM
B11 | 0.78 nM
B12 | 1.71 nM

molecular target: T1, hCD47-ECD/Fc protein (Sinobiological); test: ELISA, coated hCD47-ECD/Fc, second independent measurement
Method: After blocking, the plates were washed three times and incubated with test antibodies with serial dilution at 37° C. for 1 hour. Then the plates were washed three times and incubated with HRP-conjugated anti-human Fab secondary antibody (Sigma) at 37° C. for 1 hour. After washing three times, the plates were incubated with TMB substrate for 15 minutes at room temperature. The reaction was stopped by the addition of H2SO4 stop solution. Absorbance at 450 nm was measured by a microplate reader. The data were analyzed by GraphPad Prism 7.0.

Binder | EC50
B2 | 0.6 nM
B4 | 0.41 nM
B5 | 0.39 nM

molecular target: T1, hCD47-ECD/Fc protein (Sinobiological); test: BLI (Octet RED96), biotin-hCD47-ECD/Fc on SA sensors, 1:1 model;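 also: test antibodies as analytes, 300 s association then 300 s dissociation in running buffer, with benchmark reference antibodies run as controls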
Method: (§1) The binding affinity between antibodies and human CD47 was measured through Octet® RED96 System (ForteBio). […] After washing, the sensors were dipped into solutions containing test antibodies for 300 seconds to monitor the association phase, and then were dipped into running buffer for 300 seconds to monitor the dissociation phase. The acquired ForteBio data were processed with Data Acquisition software 7.1, and kinetic data were fitted to a 1:1 Langmuir binding model.

Binder | Kd | koff | kon
B1 | < 0.001 nM | < 1e-07 s⁻¹ | 171000 M⁻¹ s⁻¹
B2 | 0.483 nM | 8.1e-05 s⁻¹ | 168000 M⁻¹ s⁻¹
B3 | 1.51 nM | 0.000631 s⁻¹ | 417000 M⁻¹ s⁻¹
B4 | 0.826 nM | 0.000671 s⁻¹ | 813000 M⁻¹ s⁻¹
B5 | 0.474 nM | 0.0002 s⁻¹ | 422000 M⁻¹ s⁻¹
B6 | 0.141 nM | 1.37e-05 s⁻¹ | 97300 M⁻¹ s⁻¹
B8 | 0.611 nM | 3.42e-05 s⁻¹ | 56000 M⁻¹ s⁻¹
B9 | < 0.001 nM | < 1e-07 s⁻¹ | 58900 M⁻¹ s⁻¹
B10 | 4.62 nM | 0.00166 s⁻¹ | 361000 M⁻¹ s⁻¹
B11 | 4.47 nM | 0.00111 s⁻¹ | 249000 M⁻¹ s⁻¹
B12 | < 0.001 nM | < 1e-07 s⁻¹ | 93700 M⁻¹ s⁻¹

molecular target: T1, hCD47-ECD/Fc protein (Sinobiological); test: competition ELISA vs biotin-hSIRPα-ECD/His on coated hCD47-ECD/Fc, experiment 1
Method: The plates were washed three times again and incubated with HRP-conjugated streptavidin at 37° C. for 1 hour. After washing, the plates were incubated with TMB substrate for 15 minutes at room temperature. The reaction was stopped by the addition of H2SO4 stop solution. Absorbance at 450 nm was measured by a microplate reader. The data was analyzed by GraphPad Prism 7.0.

Binder | IC50
B1 | 60.6 nM
B2 | 4.55 nM
B3 | > 100 nM
B4 | 3.53 nM
B5 | 3.3 nM
B6 | > 100 nM
B7 | > 100 nM
B8 | > 100 nM
B9 | > 100 nM
B10 | 21.7 nM
B11 | > 100 nM
B12 | > 100 nM

molecular target: T1, hCD47-ECD/Fc protein (Sinobiological); test: BLI (Octet RED96), biotin-hCD47-ECD/Fc on SA sensors, 1:1 model, second independent measurement
Method: as §1

Binder | Kd | koff | kon
B4 | 0.87 nM | 0.000704 s⁻¹ | 809000 M⁻¹ s⁻¹
